Laboratory results published in US20210172932A1.
pKd: −log10 of the molar value.

Tests used:
[1] = target: human FcRn (FCGRT and beta2-microglobulin) on MDCK-hFcRn cells, clone 305-6 (human) (UniProt P55899); assay: cell-based or functional assay
[2] = target: human FcRn (immobilized on nickel-nitrilotriacetic acid-coated biosensors) (human) (UniProt P55899); assay: BLI (Octet RED), FcRn on Ni-NTA biosensor, pH 6.0
[3] = target: human FcRn (FCGRT and beta2-microglobulin) on MDCK-hFcRn cells, clone 305-6 (human) (UniProt P55899); assay: flow cytometry, 100 µg/mL on MDCK-hFcRn cells, physiological pH, geometric MFI (No mAb: 94)
[4] = target: human FcRn (immobilized on nickel-nitrilotriacetic acid-coated biosensors) (human) (UniProt P55899); assay: BLI, pH 6.0; range of the panel, lower end tied to Nivolumab by Table 1
[5] = target: human FcRn (FCGRT and beta2-microglobulin) on MDCK-hFcRn cells, clone 305-6 (human) (UniProt P55899); assay: flow cytometry on MDCK-hFcRn cells
[6] = target: human FcRn (immobilized on nickel-nitrilotriacetic acid-coated biosensors) (human) (UniProt P55899); assay: FcRn binding at pH 6.0 (BLI)

Substance | Transcytosis [1] [ng/mL] | pKd [2] | other results
Vedolizumab (antibody) | 4.1 |  | 
Atezolizumab (antibody) | 3 | 6.19 | 
Reslizumab (antibody) | 3.3 | 6.35 | Binding to MDCK-FcRn cells, MFI [3]: 93 MFI; Transcytosis in MDCK-hFcRn cells [1]: 3.3 ng/mL
Basiliximab (antibody) | 14.9 | 6.27 | Binding to MDCK-FcRn cells, MFI [3]: 203 MFI; Transcytosis in MDCK-hFcRn cells [1]: 14.8 ng/mL
Panitumumab (antibody) | 5 | 6.11 | 
2H7-Man5 (antibody) |  |  | Binding to MDCK-hFcRN, MFI [5]: 207 MFI; pKd [6]: 6.64; Transcytosis (MDCK-hFcRN) [1]: 10.3 ng/mL
Durvalumab (antibody) | 6 | 6.15 | 
Adalimumab (antibody) | 4.7 | 5.93 | Binding to MDCK-FcRn cells, MFI [3]: 183 MFI; Transcytosis in MDCK-hFcRn cells [1]: 4.7 ng/mL
Tocilizumab (antibody) | 5.5 |  | 
Emicizumab (bispecific antibody) | 3.6 |  | 
Ocrelizumab (antibody) | 4.8 | 6.35 | Binding to MDCK-hFcRN, MFI [5]: 140 MFI; pKd [6]: 6.35; Binding to MDCK-FcRn cells, MFI [3]: 101 MFI; Transcytosis (MDCK-hFcRN) [1]: 4.8 ng/mL; Transcytosis in MDCK-hFcRn cells [1]: 4.8 ng/mL
Evolocumab (antibody) | 3.6 |  | 
2H7-DG (antibody) |  |  | Binding to MDCK-hFcRN, MFI [5]: 160 MFI; pKd [6]: 6.36; Transcytosis (MDCK-hFcRN) [1]: 4.3 ng/mL
Palivizumab (antibody) | 3.8 | 6.32 | 
Ofatumumab (antibody) | 4.3 |  | 

The next lines start with results.

Transcytosis [1] [ng/mL] | pKd [2] | Substance | other results
4.2 |  | Pembrolizumab (antibody) | 
6.8 | 6.24 | Pertuzumab (antibody) | Transcytosis in MDCK-hFcRn cells [1]: 6.8 ng/mL
4.3 | 6.60 | Nivolumab (antibody) | pKd [4]: 6.60
5.6 | 6.34 | Rituximab (antibody) | 
9.9 |  | Alirocumab (antibody) | 
8.3 |  | Efalizumab (antibody) | 
6.8 |  | Golimumab (antibody) | 
4.5 |  | Obinutuzumab (antibody) | 
8.2 | 6.42 | Olaratumab (antibody) | 
7.3 | 5.89 | Avelumab (antibody) | 
4.9 | 6.55 | Natalizumab (antibody) | 
5.1 |  | Ixekizumab (antibody) | 
